This note sets out measurements from the supplement of paper PMC10567573.

Sequences and labels used below:
B1: FEM1B (parent)
chain: TLAALLLNRSESDIRYLLGYVSQQ
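Note: lentivirally expressed fusions sorted by FACS into six bins by GFP to DsRed ratio, PSI derived from sequencing read proportions per bin multiplied by bin number.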

This series covers variants of B1. The series is described as follows: protein stability index of a GFP-peptide fusion (GPS, HEK-293T) (PSI 1-6); higher = more stable. The conditions noted are these: c terminus: a fixed tail appended.
For the variant TLAALLLNRSESDVRYLLGYVSQQ, the protein stability index was 2.9.

TLAALLLNRSESDPRYLLGYVSQQ: the protein stability index came out at 1.79.

For TLAALLLNRSESDERYLLGYVSQQ, the protein stability index amounted to 2.85.

Turning to TLAALLLNRSESDHRYLLGYVSQQ, the protein stability index turned out to be 3.1.

Regarding TLAALLLNRSESDFRYLLGYVSQQ, the protein stability index worked out at 2.7.

TLAALLLNRSESDRRYLLGYVSQQ: the protein stability index was 3.

Turning to TLAALLLNRSESDQRYLLGYVSQQ, the protein stability index worked out at 2.35.

For TLAALLLNRSESDDRYLLGYVSQQ, the protein stability index turned out to be 1.53.

As to TLAALLLNRSESDYRYLLGYVSQQ, the protein stability index was 3.54.

Turning to TLAALLLNRSESDNRYLLGYVSQQ, the protein stability index is 1.74.

As to TLAALLLNRSESDLRYLLGYVSQQ, the protein stability index was 2.7.

As to TLAALLLNRSESDTRYLLGYVSQQ, the protein stability index worked out at 2.56.

For the variant TLAALLLNRSESDCRYLLGYVSQQ, the protein stability index amounted to 2.37.

Regarding TLAALLLNRSESDSRYLLGYVSQQ, the protein stability index was 3.

As for TLAALLLNRSESDMRYLLGYVSQQ, the protein stability index stood at 3.25.

With TLAALLLNRSESDGRYLLGYVSQQ, the protein stability index came to 3.06.

On to TLAALLLNRSESDWRYLLGYVSQQ, for which the protein stability index worked out at 1.77.

Take TLAALLLNRSESDKRYLLGYVSQQ: the protein stability index was found to be 1.96.

Regarding TLAALLLNRSESDARYLLGYVSQQ, the protein stability index turned out to be 2.58.

Consider TLAALLLNRSASDIRYLLGYVSQQ, for which the protein stability index came out at 2.44.

With TLAALLLNRSQSDIRYLLGYVSQQ, the protein stability index was determined as 1.99.

For the variant TLAALLLNRSCSDIRYLLGYVSQQ, the protein stability index came out at 3.04.

For the variant TLAALLLNRSVSDIRYLLGYVSQQ, the protein stability index was found to be 2.96.

With TLAALLLNRSFSDIRYLLGYVSQQ, the protein stability index was found to be 3.19.

In the case of TLAALLLNRSWSDIRYLLGYVSQQ, the protein stability index was determined as 2.68.

In the case of TLAALLLNRSSSDIRYLLGYVSQQ, the protein stability index was determined as 3.2.

As to TLAALLLNRSNSDIRYLLGYVSQQ, the protein stability index was determined as 3.2.

On to TLAALLLNRSISDIRYLLGYVSQQ, for which the protein stability index is 4.17.

Regarding TLAALLLNRSKSDIRYLLGYVSQQ, the protein stability index worked out at 2.83.

TLAALLLNRSTSDIRYLLGYVSQQ: the protein stability index turned out to be 2.44.

With TLAALLLNRSHSDIRYLLGYVSQQ, the protein stability index came out at 3.15.

As for TLAALLLNRSLSDIRYLLGYVSQQ, the protein stability index was 3.34.

On to TLAALLLNRSPSDIRYLLGYVSQQ, for which the protein stability index turned out to be 2.08.

In the case of TLAALLLNRSGSDIRYLLGYVSQQ, the protein stability index turned out to be 3.03.

Turning to TLAALLLNRSYSDIRYLLGYVSQQ, the protein stability index is 3.35.

On to TLAALLLNRSMSDIRYLLGYVSQQ, for which the protein stability index came out at 3.08.

Consider TLAALLLNRSRSDIRYLLGYVSQQ, for which the protein stability index was 3.13.

As to TLAALLLNRSDSDIRYLLGYVSQQ, the protein stability index turned out to be 2.49.

For TLAALLLNRSESSIRYLLGYVSQQ, the protein stability index is 2.62.

Regarding TLAALLLNRSESQIRYLLGYVSQQ, the protein stability index came out at 2.04.

As for TLAALLLNRSESPIRYLLGYVSQQ, the protein stability index is 2.13.

Regarding TLAALLLNRSESVIRYLLGYVSQQ, the protein stability index was found to be 3.19.

For the variant TLAALLLNRSESRIRYLLGYVSQQ, the protein stability index was 2.72.

Take TLAALLLNRSESWIRYLLGYVSQQ: the protein stability index came to 4.04.

For TLAALLLNRSESKIRYLLGYVSQQ, the protein stability index stood at 2.79.

TLAALLLNRSESAIRYLLGYVSQQ: the protein stability index came to 2.76.

Consider TLAALLLNRSESEIRYLLGYVSQQ, for which the protein stability index is 3.26.

With TLAALLLNRSESMIRYLLGYVSQQ, the protein stability index is 3.99.

In the case of TLAALLLNRSESTIRYLLGYVSQQ, the protein stability index amounted to 2.88.

With TLAALLLNRSESYIRYLLGYVSQQ, the protein stability index is 3.38.

Turning to TLAALLLNRSESGIRYLLGYVSQQ, the protein stability index is 2.81.

Regarding TLAALLLNRSESNIRYLLGYVSQQ, the protein stability index worked out at 2.77.

Turning to TLAALLLNRSESLIRYLLGYVSQQ, the protein stability index is 3.62.

Take TLAALLLNRSESHIRYLLGYVSQQ: the protein stability index was found to be 3.21.

TLAALLLNRSESCIRYLLGYVSQQ: the protein stability index turned out to be 3.94.

On to TLAALLLNRSESFIRYLLGYVSQQ, for which the protein stability index turned out to be 1.76.

Turning to TLAALLLNRSESIIRYLLGYVSQQ, the protein stability index amounted to 3.07.

TLAALLLNRSEYDIRYLLGYVSQQ: the protein stability index stood at 2.93.

As to TLAALLLNRSEQDIRYLLGYVSQQ, the protein stability index is 2.69.

On to TLAALLLNRSEWDIRYLLGYVSQQ, for which the protein stability index amounted to 3.62.

With TLAALLLNRSEVDIRYLLGYVSQQ, the protein stability index stood at 1.73.

As for TLAALLLNRSEPDIRYLLGYVSQQ, the protein stability index came out at 3.27.

Regarding TLAALLLNRSEDDIRYLLGYVSQQ, the protein stability index worked out at 2.71.

Consider TLAALLLNRSEKDIRYLLGYVSQQ, for which the protein stability index was determined as 3.14.

Regarding TLAALLLNRSENDIRYLLGYVSQQ, the protein stability index is 2.79.

As for TLAALLLNRSEADIRYLLGYVSQQ, the protein stability index stood at 2.19.

With TLAALLLNRSEHDIRYLLGYVSQQ, the protein stability index turned out to be 2.48.

Take TLAALLLNRSEIDIRYLLGYVSQQ: the protein stability index was found to be 3.15.

As for TLAALLLNRSEEDIRYLLGYVSQQ, the protein stability index worked out at 3.18.

Consider TLAALLLNRSETDIRYLLGYVSQQ, for which the protein stability index worked out at 2.18.

For the variant TLAALLLNRSERDIRYLLGYVSQQ, the protein stability index was found to be 2.36.

As for TLAALLLNRSELDIRYLLGYVSQQ, the protein stability index was determined as 2.36.

TLAALLLNRSEMDIRYLLGYVSQQ: the protein stability index turned out to be 2.33.

As for TLAALLLNRSEGDIRYLLGYVSQQ, the protein stability index is 3.69.

For TLAALLLNRSEFDIRYLLGYVSQQ, the protein stability index is 2.89.

Turning to TLAALLLNRSESDIYYLLGYVSQQ, the protein stability index was determined as 3.31.

Regarding TLAALLLNRSESDIIYLLGYVSQQ, the protein stability index is 2.81.

Regarding TLAALLLNRSESDIMYLLGYVSQQ, the protein stability index worked out at 3.35.

In the case of TLAALLLNRSESDIHYLLGYVSQQ, the protein stability index stood at 2.4.

Turning to TLAALLLNRSESDIVYLLGYVSQQ, the protein stability index amounted to 1.75.

With TLAALLLNRSESDIFYLLGYVSQQ, the protein stability index was 3.37.

As for TLAALLLNRSESDISYLLGYVSQQ, the protein stability index is 3.23.

TLAALLLNRSESDICYLLGYVSQQ: the protein stability index worked out at 2.14.

As to TLAALLLNRSESDITYLLGYVSQQ, the protein stability index stood at 3.37.

For TLAALLLNRSESDIQYLLGYVSQQ, the protein stability index was 1.61.

Turning to TLAALLLNRSESDILYLLGYVSQQ, the protein stability index turned out to be 3.36.

Turning to TLAALLLNRSESDIPYLLGYVSQQ, the protein stability index is 2.03.

Regarding TLAALLLNRSESDIKYLLGYVSQQ, the protein stability index was found to be 2.3.

Turning to TLAALLLNRSESDIDYLLGYVSQQ, the protein stability index is 2.12.

For TLAALLLNRSESDIEYLLGYVSQQ, the protein stability index is 2.72.

Regarding TLAALLLNRSESDIAYLLGYVSQQ, the protein stability index was 2.31.

In the case of TLAALLLNRSESDINYLLGYVSQQ, the protein stability index amounted to 2.55.

As to TLAALLLNRSESDIRALLGYVSQQ, the protein stability index is 4.57.

On to TLAALLLNRSESDIRCLLGYVSQQ, for which the protein stability index came to 2.91.
